Results on 1 substance are retold here after article PMC3081611.

The test addresses CurA ACPI-ACPII-ACPIII tridomain. The test can be described thus: negative stain electron microscopy.

For the substance “CurA ACPI-ACPII-ACPIII tridomain (domain or fragment)”, the percent existing as dimers was found to be 25% and the stoichiometry N is 2.
